Experiment [1] addresses H1N1 influenza neuraminidase (influenza H1N1 (strain not stated)).
Experiment [2] deals with H3N2 influenza neuraminidase (influenza H3N2 (strain not stated)).
Experiment [3] addresses influenza H5N1 neuraminidase (H5N1 A/Thailand/1(KAN-1)/2004) (influenza A virus H5N1 A/Thailand/1(KAN-1)/2004).

Several values for one entry are separate records, joined by “and”; a condition that tells them apart may be missing. Equal entries are not always repeated.

B1: humanized VHH h27-8GL (monovalent) (VHH)
VHH: QVQLVESGGGLVQPGGSLRLSCAASGGTFSSYVMGWFRQAPGKGLESVASITRDGDTTFYADSVKGRFTISRDNSKNTLYLQMNSLRAEDTAVYYCAAAVQYGTLWSRQYDYWGQGTLVTVSS
As to B1, the ELISA reactivity compared to control protein (BSA) is 1.62 and 1.21 in experiment [1]; 1.34 and 1.09 in experiment [2]; 2.27 and 1.78 in experiment [3].

B2: Bivalent homodimer of humanized anti-Flu neuraminidase VHH (clone Flu h27-8GL.h27-8GL) (VHH)
chain: QVQLVESGGGLVQPGGSLRLSCAASGGTFSSYVMGWFRQAPGKGLESVASITRDGDTTFYADSVKGRFTISRDNSKNTLYLQMNSLRAEDTAVYYCAAAVQYGTLWSRQYDYWGQGTLVTVSSAHHSEDPSSKAPKAPMAQVQLVESGGGLVQPGGSLRLSCAASGGTFSSYVMGWFRQAPGKGLESVASITRDGDTTFYADSVKGRFTISRDNSKNTLYLQMNSLRAEDTAVYYCAAAVQYGTLWSRQYDYWGQGTLVTVSS
As to B2, the ELISA reactivity compared to control protein (BSA) in experiment [1] is 2.44 and 1.31; in experiment [2] it was 1.67 and 1.13; in experiment [3] it was 3.73 and 2.15.

B3: Anti-Flu neuraminidase VHH (clone Flu 27-8) (VHH)
VHH: QVQLVESGGRLVQAGGSLRVACVASGGTFSSYVMGWFRQAPGKERESVASITRDGDTTFYADSVKGRFTIARDNAKNTVYLQMNSLQPEDTGVYYCAAAVQYGTLWSRQYDYWGQGTQVTVSS
B3: the ELISA reactivity compared to control protein (BSA) in experiment [1] came to 1.89; in experiment [2], 1.08; in experiment [3], 2.48.

The record behind these values is patent publication US20170183645A1.
